Laboratory results as given in paper PMC11558822, “Myc 9aaTAD activation domain binds to mediator of transcription with superior high affinity” (Molecular Medicine, 2024).
No end group written: not given here. *: point of attachment. Biotin = O=C1N[C@H]2[C@H](CS[C@H]2CCCCC(=O)*)N1

B1: c-Myc 9aaTAD peptide (Biotin-GSSS-TQLEMVTELLG) (peptide)
peptide: Biotin-GSSSTQLEMVTELLG
notes: linker between biotin and the c-Myc stretch; it may belong to the linker; also called c-Myc peptide; MYC peptide; source: synthetic peptide (Apeptide Shanghai Chutide Biotechnology), 95% purity
B2: N-Myc 9aaTAD peptide (Biotin-GSSS-EPPSWVTEMLLEN) (peptide)
peptide: Biotin-GSSSEPPSWVTEMLLEN
notes: linker between biotin and the N-Myc stretch; human N-Myc stretch with its 9aaTAD; also called N-Myc peptide; NMY peptide; source: synthetic peptide (Apeptide Shanghai Chutide Biotechnology), 95% purity
B3: MLL 9aaTAD peptide (Biotin-GS-NILPSDIMDFVLKNT) (peptide)
peptide: Biotin-GSNILPSDIMDFVLKNT
notes: linker between biotin and the MLL stretch; MLL stretch with its 9aaTAD; Positive control of the BLI assay; also called MLL peptide; source: synthetic peptide (Apeptide Shanghai Chutide Biotechnology), 95% purity
B4: Sp1-Ac peptide, acidic form of Sp1 9aaTAD (Biotin-GSS-GDVSWDTLDLDDLD) (peptide)
peptide: Biotin-GSSGDVSWDTLDLDDLD
notes: linker between biotin and the Sp1 stretch; also called #SpD; acidic modification; source: synthetic peptide (Apeptide Shanghai Chutide Biotechnology), 95% purity

Legend:
[1] = molecular target: T1, KIX domain of CBP coactivator (region 586-672) (UniProt P45481 586-672); assay: BLI; biotinylated peptide immobilised on streptavidin SA biosensors (Octet RED96e); KIX domain in solution at 0.31, 0.63, 1.25, 2.5 and 5.0 uM; 30 C, 1000 rpm; 20 mM sodium phosphate pH 6.0, 50 mM NaCl; blank-subtracted, 1:1 model, steady-state analysis; apparent KD, average of pentaplicate; conditions: both partners purified
T1 construct: GST-His6x tag removed by TEV protease; also called KIX protein; source: expressed as GST-His6x-TEV-KIX from pGEX-2T, purified (His trap Ni column, TEV cleavage, second His trap, HiLoad S30); not shown: GST, N-terminal, cleaved; His6, N-terminal, cleaved

[2] = molecular target: T1, KIX domain of CBP coactivator (region …); assay: BLI; biotinylated Sp1 or Sp1-Ac peptide immobilised, KIX in solution in the 3-16 uM range; steady-state analysis, 1:1 model; apparent KD; conditions: both partners purified

T1 sequence (P45481 other isoform, or with tags, fused parts or gaps): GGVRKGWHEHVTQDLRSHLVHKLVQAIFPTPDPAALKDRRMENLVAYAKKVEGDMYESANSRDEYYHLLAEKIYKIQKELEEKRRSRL

Kd [1] [µM] | Kd [2] [µM] | Binder
2.16 ± 1.17 | – | B1
0.88 ± 0.11 | – | B2
1.17 ± 0.21 | – | B3
– | 9.77 ± 1.57 | B4
